Measurements: patent US20250361274A1, “PEPTIDE AND PEPTIDE-CONTAINING AGENT” (PEPTIDREAM INC., priority 2022, published 2025)
Numbered stars: 1 amine (or outer) side, 2 acyl side, 3 side chain; on linkers, the order of the positions; unused ones are H or OH. Bridge positions count the residues as written; N and C are the ends. Square brackets hold non-standard residues; d marks the D form. Ends that are not written are not given here. KCOpipzaa = N6-(4-(carboxymethyl)piperazine-1-carbonyl)-L-lysine, O=C(NCCCC[C@H](N[*:1])C(=O)[*:2])N1CCN(CC(=O)[*:3])CC1; Bph3C = (S)-2-amino-3-(3'-chloro-[1,1'-biphenyl]-4-yl)propanoic acid, O=C([C@H](Cc1ccc(-c2cccc(Cl)c2)cc1)N[*:1])[*:2]; Cha4tH = (S)-2-amino-3-((1r,4S)-4-hydroxycyclohexyl)propanoic acid, O=C([C@H](C[C@H]1CC[C@H](O[*:3])CC1)N[*:1])[*:2]; 3Pal(6-Ph) = N[C@@H](Cc1ccc(-c2ccccc2)nc1)C(=O)O; Phe(4-COOH) = N[C@@H](Cc1ccc(C(=O)O)cc1)C(=O)O; Bip = N[C@@H](Cc1ccc(-c2ccccc2)cc1)C(=O)O; Phe(4-F) = N[C@@H](Cc1ccc(F)cc1)C(=O)O; Hyp = O=C(O)[C@@H]1C[C@@H](O)CN1; NMeF = CN[C@@H](Cc1ccccc1)C(=O)O; 4Pal = N[C@@H](Cc1ccncc1)C(=O)O; Aad = N[C@@H](CCCC(=O)O)C(=O)O; Cha = N[C@@H](CC1CCCCC1)C(=O)O; Abu = CC[C@H](N)C(=O)O; βAla = NCCC(=O)O

Key:
BMP7 = target: T1, BMP7 (Homo sapiens, UniProt P18075); experiment: BMP7 signal transduction inhibitory activity: SMAD1 phosphorylation by BMP7 stimulus, A549 cells; type: cell-based; details: for aLISA BMP7 (10 nM) % inh: peptide conc. in assay 1, 10, 100 nM; for aLISA BMP7: A549 cells; for aLIZA BMP7 (10 nM) % Inh: SMAD1 phosphorylation by BMP7 stimulus, peptide conc. in assay 10, 100, 1000 nM, class symbols
T1 sequence (P18075 293-431): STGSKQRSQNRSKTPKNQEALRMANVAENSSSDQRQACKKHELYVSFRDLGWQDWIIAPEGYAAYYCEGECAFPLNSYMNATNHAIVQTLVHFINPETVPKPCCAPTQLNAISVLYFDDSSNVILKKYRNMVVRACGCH
Procedure, shortened: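 Inhibition is read as reduced BMP7-driven SMAD1 phosphorylation in human A549 cells, with the BMP7 stimulus at 10 nM. Three-point peptide concentrations spanned 1–1,000 nM depending on the peptide series. Some peptides received eight-point, 1/3-ratio titrations from 100 nM or 1,000 nM, alongside a Noggin control.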

BMP4 = target: T2, BMP4 (Homo sapiens, UniProt P12644); experiment: BMP4 signal transduction inhibitory activity: SMAD1 phosphorylation by BMP4 stimulus, AlphaLISA SureFire, A549 cells; type: cell-based; details: for aLISA BMP4 (0.2 nM) % inh: peptide conc. in assay 0.2, 2, 20 nM; for aLISA BMP4: A549 cells; for aLIZA BMP4 (0.2 nM) % Inh: SMAD1 phosphorylation by BMP4 stimulus, peptide conc. in assay 0.02, 0.2, 2 nM, class symbols
T2 sequence (P12644 293-408): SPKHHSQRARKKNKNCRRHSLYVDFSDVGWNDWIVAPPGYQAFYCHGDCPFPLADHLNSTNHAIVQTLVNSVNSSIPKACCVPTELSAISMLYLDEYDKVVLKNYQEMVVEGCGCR

[1] = SMAD1 phosphorylation, BMP7 10 nM
[2] = SMAD1 phosphorylation, BMP4 0.2 nM
[3] = inhibition of SMAD1 phosphorylation by BMP7 stimulus, AlphaLISA, class by peptide concentration zone
[4] = inhibition of SMAD1 phosphorylation by BMP4 stimulus, AlphaLISA, class by peptide concentration zone
[5] = inhibition of SMAD1 phosphorylation by BMP7 stimulus, peptides of Synthesis 2, classes A-D, ND
[6] = inhibition of SMAD1 phosphorylation by BMP4 stimulus, peptides of Synthesis 2, classes A-C, ND
[7] = 10 nM BMP7, peptides of Synthesis 2, peptide 1, 10, 100 nM
[8] = SMAD1 phosphorylation, peptides of Synthesis 2, peptide 0.02, 0.2, 2 nM

## 357 (FG[NMeF]G[Bip]GDD[Cha]A[NMeF]L[Phe(4-COOH)]CG-NH2; not fully specified (N-terminus, bridges)) [compound 357]
BMP7; [1]
  aLISA BMP7 (10 nM) % inh: D (showed less than 30% of inhibitory activity in 10 nM-addition zone and showed 30% or more of inhibitory activity in 100 nM-addition zone)
BMP4; [2]
  aLISA BMP4 (0.2 nM) % inh: ND (the inhibitory activity was less than 30% at the maximum concentration evaluated)

## 331 (FG[NMeF][dS][Bip]GDD[Cha]A[NMeF]LHCG-NH2; not fully specified (N-terminus, bridges)) [compound 331]
BMP7; [1]
  aLISA BMP7 (10 nM) % inh: D (showed less than 30% of inhibitory activity in 10 nM-addition zone and showed 30% or more of inhibitory activity in 100 nM-addition zone)
BMP4; [2]
  aLISA BMP4 (0.2 nM) % inh: ND (the inhibitory activity was less than 30% at the maximum concentration evaluated)

## 71 ({CH2CO}-ERVYVDR[Bip]PYP[Bip][Phe(4-F)][Phe(4-COOH)][Phe(4-COOH)]SCG-NH2; thioether N-17; not fully specified) [compound 71]
BMP7; [3]
  aLISA BMP7: C (showed less than 50% of inhibitory activity in 10 nM-addition zone and showed 50% or more of inhibitory activity in 100 nM-addition zone)
BMP4; [4]
  aLISA BMP4: A (showed an inhibitory activity of 50% or more in a zone to which the peptide was added to in an amount of 0.2 nM)

## 98 ({CH2CO}-ERVYV[KCOpipzaa]R[3Pal(6-Ph)]SYP[Bip]Y[Phe(4-COOH)][Phe(4-COOH)]SC[βAla][dE]-OH; thioether N-17; not fully specified) [compound 98]
BMP7; [5]
  aLISA BMP7: C (showed less than 50% of inhibitory activity in 10 nM-addition zone and showed 50% or more of inhibitory activity in 100 nM-addition zone)
BMP4; [6]
  aLISA BMP4: A (showed an inhibitory activity of 50% or more in a zone to which the peptide was added to in an amount of 0.2 nM)

## 47 (Ac-ARVYVDR[Bip]PYP[Bip]Y[Phe(4-COOH)][Phe(4-COOH)]SC[βAla][dE]-OH; thioether (positions not given here); not fully specified (bridges)) [compound 47]
BMP7; [3]
  aLISA BMP7: ND (the inhibitory activity was less than 30% at the maximum concentration evaluated)
BMP4; [4]
  aLISA BMP4: A (showed an inhibitory activity of 50% or more in a zone to which the peptide was added to in an amount of 0.2 nM)

## 22 ({CH2CO}-ARVYVKR[Bip][KCOpipzaa]YP[Bip]Y[Phe(4-COOH)][Phe(4-COOH)]SCG-NH2; thioether N-17; not fully specified) [compound 22]
BMP7; [7]
  aLISA BMP7: C (showed less than 50% of inhibitory activity in 10 nM-addition zone and showed 50% or more of inhibitory activity in 100 nM-addition zone)
BMP4; [8]
  aLISA BMP4: A (showed an inhibitory activity of 50% or more in a zone to which the peptide was added to in an amount of 0.2 nM)

## 321 (ERV[Phe(4-COOH)][Cha4tH][KCOpipzaa]R[3Pal(6-Ph)][KCOpipzaa]Y[Hyp][Bph3C][4Pal][Phe(4-COOH)][Phe(4-COOH)]SCG-NH2) [compound 321]
BMP7; BMP7 10 nM, peptide 10, 100, 1000 nM, Table 6
  aLIZA BMP7 (10 nM) % inh: E (showed less than 30% of inhibitory activity in 100 nM-addition zone and showed 30% or more of inhibitory activity in 1,000 nM-addition zone)
BMP4; BMP4 0.2 nM, peptide 0.02, 0.2, 2 nM, Table 6
  aLIZA BMP4 (0.2 nM) % inh: B (showed less than 30% of inhibitory activity in 0.02 nM-addition zone and showed 30% or more of inhibitory activity in 0.2 nM-addition zone)

## 102 ({CH2CO}-E[KCOpipzaa]VYV[KCOpipzaa]R[Bip]SYV[Bip]Y[Phe(4-COOH)][Phe(4-COOH)]SC[βAla][dE]-OH; thioether N-17; not fully specified) [compound 102]
BMP7; [5]
  aLISA BMP7: C (showed less than 50% of inhibitory activity in 10 nM-addition zone and showed 50% or more of inhibitory activity in 100 nM-addition zone)
BMP4; [6]
  aLISA BMP4: C (showed an inhibitory activity of less than 50% in 0.2 nM-addition zone and showed an inhibitory activity of 50% or more in 2 nM-addition zone were defined as B or C)

## 330 (FG[NMeF][dA][Bip]GDD[Cha]A[NMeF]LHCG-NH2; not fully specified (N-terminus, bridges)) [compound 330]
BMP7; [1]
  aLISA BMP7 (10 nM) % inh: D (showed less than 30% of inhibitory activity in 10 nM-addition zone and showed 30% or more of inhibitory activity in 100 nM-addition zone)
BMP4; [2]
  aLISA BMP4 (0.2 nM) % inh: ND (the inhibitory activity was less than 30% at the maximum concentration evaluated)

## 77 ({CH2CO}-ERVYVDR[Bip][KCOpipzaa]YP[Bip][Phe(4-F)][Phe(4-COOH)][Phe(4-COOH)]SCG-NH2; thioether N-17; not fully specified) [compound 77]
BMP7; [3]
  aLISA BMP7: C (showed less than 50% of inhibitory activity in 10 nM-addition zone and showed 50% or more of inhibitory activity in 100 nM-addition zone)
BMP4; [4]
  aLISA BMP4: A (showed an inhibitory activity of 50% or more in a zone to which the peptide was added to in an amount of 0.2 nM)

## 11 (ARVYVDRFKYPFYFFSCG; not fully specified; MOD_RES 8 F represents (S)-3-(1,1'-Biphenyl-4-yl)-2-aminopropanoic acid(Bph); MOD_RES 12 F represents (S)-3-(1,1'-Biphenyl-4-yl)-2-aminopropanoic acid(Bph); MOD_RES 14 F represents (S)-4-(2-amino-2-carboxyethyl)benzoic acid(F4COO); MOD_RES 15 F represents (S)-4-(2-amino-2-carboxyethyl)benzoic acid(F4COO)) [compound 11]
BMP7; [7]
  aLISA BMP7: C (showed less than 50% of inhibitory activity in 10 nM-addition zone and showed 50% or more of inhibitory activity in 100 nM-addition zone)
BMP4; [8]
  aLISA BMP4: A (showed an inhibitory activity of 50% or more in a zone to which the peptide was added to in an amount of 0.2 nM)

## 249 (ERVHVDR[3Pal(6-Ph)]SYV[Bip]Y[Phe(4-COOH)][Phe(4-COOH)]SCG-NH2; not fully specified) [compound 249]
BMP7
  aLIZA BMP7 (10 nM) % Inh: E (showed less than 30% of inhibitory activity in 100 nM-addition zone and showed 30% or more of inhibitory activity in 1,000 nM-addition zone)
BMP4
  aLIZA BMP4 (0.2 nM) % Inh: C (showed less than 30% of inhibitory activity in 0.2 nM-addition zone and showed 30% or more of inhibitory activity in 2 nM-addition zone)

## 115 (EKVYVKRFPYPFYFFSCG; not fully specified; MOD_RES 2 K represents N6-(4-(Carboxymethyl) piperazine-1-carbonyl)-L-lysine(KCOpipzaa); MOD_RES 6 K represents N6-(4-(Carboxymethyl) piperazine-1-carbonyl)-L-lysine(KCOpipzaa); MOD_RES 8 F represents (S)-3-(1,1'-Biphenyl-4-yl)-2-aminopropanoic acid(Bph); MOD_RES 12 F represents (S)-3-(1,1'-Biphenyl-4-yl)-2-aminopropanoic acid(Bph); MOD_RES 14 F represents (S)-4-(2-amino-2-carboxyethyl)benzoic aci) [compound 115]
BMP7; [5]
  aLISA BMP7: C (showed less than 50% of inhibitory activity in 10 nM-addition zone and showed 50% or more of inhibitory activity in 100 nM-addition zone)
BMP4; [6]
  aLISA BMP4: A (showed an inhibitory activity of 50% or more in a zone to which the peptide was added to in an amount of 0.2 nM)

## 419 (FG[NMeF]G[3Pal(6-Ph)]GDE[Cha][Aad][NMeF]L[Abu]C[βAla][dE]) [compound 419]
BMP7; BMP7 10 nM stimulus
  aLISA BMP7 (10 nM) % inh: D (showed less than 30% of inhibitory activity in 10 nM-addition zone and showed 30% or more of inhibitory activity in 100 nM-addition zone)
BMP4; BMP4 0.2 nM stimulus
  aLISA BMP4 (0.2 nM) % inh: ND (the inhibitory activity was less than 30% at the maximum concentration evaluated)

## 366 (FG[NMeF]G[Bip]GDE[Cha][Aad][NMeF]LHCG-NH2; not fully specified (N-terminus, bridges)) [compound 366]
BMP7; [1]
  aLISA BMP7 (10 nM) % inh: D (showed less than 30% of inhibitory activity in 10 nM-addition zone and showed 30% or more of inhibitory activity in 100 nM-addition zone)
BMP4; [2]
  aLISA BMP4 (0.2 nM) % inh: ND (the inhibitory activity was less than 30% at the maximum concentration evaluated)

## 370 (FG[NMeF]G[3Pal(6-Ph)]GDE[Cha]Q[NMeF]L[Phe(4-COOH)]CG-NH2; not fully specified (N-terminus, bridges)) [compound 370]
BMP7; [1]
  aLISA BMP7 (10 nM) % inh: D (showed less than 30% of inhibitory activity in 10 nM-addition zone and showed 30% or more of inhibitory activity in 100 nM-addition zone)
BMP4; [2]
  aLISA BMP4 (0.2 nM) % inh: ND (the inhibitory activity was less than 30% at the maximum concentration evaluated)

## 257 (TRVYVDR[3Pal(6-Ph)]SYV[Bip]Y[Phe(4-COOH)][Phe(4-COOH)]SCG-NH2; not fully specified) [compound 257]
BMP7
  aLIZA BMP7 (10 nM) % Inh: E (showed less than 30% of inhibitory activity in 100 nM-addition zone and showed 30% or more of inhibitory activity in 1,000 nM-addition zone)
BMP4
  aLIZA BMP4 (0.2 nM) % Inh: C (showed less than 30% of inhibitory activity in 0.2 nM-addition zone and showed 30% or more of inhibitory activity in 2 nM-addition zone)
